# Measurements from the supplement of paper PMC7877785.
# ± gives the uncertainty stated by the source.
# Assay: self-splicing fitness, log relative to wild type (ln ratio); higher = more splicing; Tetrahymena group I intron in knt gene, E. coli kanamycin selection, DiMSum; sequences stand for … in CUCUCU…GGAGGGAAAAGUUAUCAGGCAUGCACCUGGUAGCUAGUCUUUAAACCAAUAGAUUGCAUCGGUUUAAAAGGCAAGACCGUCAAAUUGCGGGAAAGGGGUCAACAGCCGUUCAGUACCAAGUCUCAGGGGAAACUUUGAGAUGGCCUUGCAAAGGGUAUGGUAAUAAGCUGACGGACAUGGUCCUAACCACGCAGCCAAGUCCUAAGUCAACAGAUCUUCUGUUGAUAUGGAUGCAGUUCACAGACUAAAUGUCGGUCGGGGAAGAUGUAUUCUUCUCAUAAGAUAUAGUCGGACCUCUCCUUAAUGGGAGCUAGCGGAUGAAGUGAUGCAACACUGGAGCCGCUGGGAACUAAUUUGUAUGCGAAAGUAUAUUGAUUAGUUUUGGAGUACUCGUGGUCG
# Method in brief: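 Six replicate transformations of E. coli BL21(DE3) with a pET-22b(+) library were grown overnight at 37°C or 30°C. The library randomised all eight P1ex-region intron nucleotides, the intron lying in the knt kanamycin-resistance gene, and plates were LB agar with or without 25 μg/mL kanamycin plus 100 μg/mL carbenicillin, 50 μM IPTG and 0.2% rhamnose. Pooled colonies were amplicon-sequenced on an Illumina HiSeq 2500, and fitness is the DiMSum error-weighted combination of wild-type-normalised replicate fold changes, kanamycin versus none.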
Sequence,self-splicing fitness (ln) (30 °C),self-splicing fitness (ln) (37 °C)
UGCAAGCAAUAUUACGCCAU,-4.18 ± 0.42,-1.87 ± 0.29
GUUCAGCAAUAUUACGUCAU,-0.56 ± 0.083,-0.0298 ± 0.09
AUGGAGCAAUAUUACGUAGG,-3.11 ± 0.17,-2.76 ± 0.23
UCGCAGCAAUAUUACGCAGC,,-2.1 ± 0.45
AAAGAGCAAUAUUACGGCAC,-2.72 ± 0.19,-2.01 ± 0.21
UUUGAGCAAUAUUACGCUUC,-2.18 ± 0.31,-2.53 ± 0.44
UCAAAGCAAUAUUACGCCCG,-1.66 ± 0.2,-0.884 ± 0.27
CACGAGCAAUAUUACGGUUU,-3.79 ± 0.33,-2.93 ± 0.36
CCGCAGCAAUAUUACGACAG,-0.485 ± 0.063,0.0928 ± 0.088
AGUCAGCAAUAUUACGCUAA,-0.794 ± 0.083,-0.99 ± 0.083
UGCUAGCAAUAUUACGGUUA,-0.0068 ± 0.062,-0.481 ± 0.068
AAAUAGCAAUAUUACGCCAA,-2.54 ± 0.18,-1.86 ± 0.13
GUCCAGCAAUAUUACGAAAU,-0.587 ± 0.1,-0.0182 ± 0.12
UAAAAGCAAUAUUACGUUGU,-3.71 ± 0.14,-1.96 ± 0.14
AUGCAGCAAUAUUACGGAAA,-1.86 ± 0.23,-2.17 ± 0.28
GAGGAGCAAUAUUACGGGAG,-4.37 ± 0.29,-3.63 ± 0.35
CCUCAGCAAUAUUACGAGUA,-3.06 ± 0.21,-2.38 ± 0.21
AAGCAGCAAUAUUACGAAAA,-2.81 ± 0.25,-1.77 ± 0.16
UGCUAGCAAUAUUACGCCAU,-3.15 ± 0.28,-2.65 ± 0.35
CAGGAGCAAUAUUACGAUCG,-0.865 ± 0.08,0.258 ± 0.1
GGUAAGCAAUAUUACGGCAC,-0.762 ± 0.096,-0.531 ± 0.15
GGUCAGCAAUAUUACGACAU,0.0683 ± 0.013,0.148 ± 0.033
UUAGAGCAAUAUUACGGAUU,-3.74 ± 0.28,-2.48 ± 0.27
UUGUAGCAAUAUUACGUGUG,-1.28 ± 0.17,-1.17 ± 0.11
CAGAAGCAAUAUUACGACAG,-0.805 ± 0.15,-0.248 ± 0.23
UUAUAGCAAUAUUACGGUAG,-1.38 ± 0.14,-0.483 ± 0.14

Sequence,self-splicing fitness (ln) (30 °C),self-splicing fitness (ln) (37 °C)
AUCUAGCAAUAUUACGCAAC,-3.38 ± 0.37,-2.06 ± 0.32
CUACAGCAAUAUUACGCUCC,-3.45 ± 0.24,-2.11 ± 0.32
CAGAAGCAAUAUUACGCGUU,-3.09 ± 0.17,-3.61 ± 0.29
AAGAAGCAAUAUUACGAAUU,-1.53 ± 0.084,-0.992 ± 0.12
ACCGAGCAAUAUUACGCUGU,-3.32 ± 0.17,-0.834 ± 0.13
ACCGAGCAAUAUUACGUGUC,-3.24 ± 0.2,-3.04 ± 0.27
GGAGAGCAAUAUUACGUUCA,-1.39 ± 0.17,-0.277 ± 0.21
UACGAGCAAUAUUACGUGUG,-2.43 ± 0.15,-1.82 ± 0.12
UACUAGCAAUAUUACGUUGA,-3.37 ± 0.17,-0.894 ± 0.12
UUCAAGCAAUAUUACGCAGA,-3.11 ± 0.35,-1.91 ± 0.2
AACAAGCAAUAUUACGUCUG,-1.22 ± 0.058,-0.709 ± 0.076
CUUGAGCAAUAUUACGAAAC,-4 ± 0.33,-2.78 ± 0.36
CCUAAGCAAUAUUACGUGAG,-1.2 ± 0.057,-0.711 ± 0.076
UACUAGCAAUAUUACGAUAA,-1.05 ± 0.085,-0.513 ± 0.093
CGUAAGCAAUAUUACGCCGU,-3.89 ± 0.26,-2.65 ± 0.21
GAGUAGCAAUAUUACGUGCA,-1.35 ± 0.14,0.558 ± 0.2
UUAGAGCAAUAUUACGAACU,,-1.92 ± 0.43
UGUGAGCAAUAUUACGGAUU,,-1.59 ± 0.34
CUAUAGCAAUAUUACGGUCG,0.227 ± 0.073,0.586 ± 0.11
GCACAGCAAUAUUACGAGUC,-2.62 ± 0.069,-1.29 ± 0.065
GCAGAGCAAUAUUACGUCUC,,-2.17 ± 0.31
CCUGAGCAAUAUUACGAAUU,-2.96 ± 0.2,-2.15 ± 0.31
AUAUAGCAAUAUUACGGGGC,-3.4 ± 0.43,-2.48 ± 0.32
AUCAAGCAAUAUUACGAGGC,-3.86 ± 0.21,-2.57 ± 0.2
GAUAAGCAAUAUUACGUACA,-0.491 ± 0.15,-0.262 ± 0.16
UGUAAGCAAUAUUACGAAUU,-2.57 ± 0.25,-1.64 ± 0.19

Sequence,self-splicing fitness (ln) (30 °C),self-splicing fitness (ln) (37 °C)
CAAAAGCAAUAUUACGCAAG,-1.52 ± 0.12,0.0344 ± 0.12
GUGUAGCAAUAUUACGGGAC,-3.44 ± 0.32,-2.03 ± 0.28
UCGCAGCAAUAUUACGUUCC,-2.7 ± 0.23,
CUGCAGCAAUAUUACGGUAU,-4.53 ± 0.25,-2.85 ± 0.19
AACUAGCAAUAUUACGCAUU,-2.19 ± 0.077,-1.09 ± 0.073
UCUGAGCAAUAUUACGUAUG,-3.07 ± 0.18,-2.07 ± 0.17
UAAGAGCAAUAUUACGCCGG,-2.97 ± 0.31,-1.72 ± 0.26
GUAUAGCAAUAUUACGUUCU,-2.27 ± 0.13,-0.863 ± 0.13
CAGCAGCAAUAUUACGGGUA,-3.24 ± 0.19,-1.73 ± 0.13
ACACAGCAAUAUUACGUAUG,-2.32 ± 0.076,-1.9 ± 0.098
CCCCAGCAAUAUUACGUAUC,-3.88 ± 0.21,-3.84 ± 0.21
CCCAAGCAAUAUUACGGAAU,-3.88 ± 0.26,-2.94 ± 0.22
UCAUAGCAAUAUUACGCUGG,-3.05 ± 0.19,-2.3 ± 0.16
UUACAGCAAUAUUACGCCCG,-0.115 ± 0.18,0.245 ± 0.25
CGUAAGCAAUAUUACGUCCC,-3.09 ± 0.38,-1.21 ± 0.29
AGUCAGCAAUAUUACGAAUU,-0.652 ± 0.064,-0.509 ± 0.076
GGGUAGCAAUAUUACGUGUA,-0.214 ± 0.12,-0.897 ± 0.14
GAUGAGCAAUAUUACGAGCU,-3.65 ± 0.26,-2.11 ± 0.24
CGUGAGCAAUAUUACGAAUA,-2.8 ± 0.28,-2.87 ± 0.32
CGCCAGCAAUAUUACGACGA,-2.77 ± 0.15,-1.48 ± 0.14
CCCAAGCAAUAUUACGUCAG,-4.12 ± 0.17,-1.97 ± 0.13
UAACAGCAAUAUUACGUUAA,-3.25 ± 0.2,-1.6 ± 0.12
AGUUAGCAAUAUUACGAUGC,-1.75 ± 0.2,-0.0326 ± 0.17
UGGCAGCAAUAUUACGCAUC,-1.93 ± 0.18,-1.65 ± 0.16
